Reference: the supplement of paper PMC9170038

Test system: MS2 coat protein
Assay: apparent KD of MS2 coat protein; designed switch direction (-1 OFF switch, 1 ON switch): -1; higher = weaker reporter binding
Procedure, shortened: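 Stalled E. coli RNA polymerase transcribed designed RNA switches on Illumina chips, which were then titrated with SNAP-549-labelled MS2 coat protein, doubling from 0.7 or 1.5 nM to 3 µM. Steps lasted from 0.8–1.5 h at the lowest concentration to 10–20 min at the highest. The apparent KD is each design's median over clusters of curve-fitted normalised fluorescence.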

[1] = input ligand: microRNA oligo, concentration not stated
[2] = Eterna round: R95, input ligand: FMN 200 uM
[3] = Eterna round: R95, input ligand: microRNA oligo, concentration not stated
[4] = Eterna round: R95, input ligand: none

Sequence | apparent KD of MS2 coat protein (input ligand: FMN 200 uM) [nM] | apparent KD of MS2 coat protein (input ligand: none) [nM] | apparent KD of MS2 coat protein [1] [nM] | apparent KD of MS2 coat protein [2] [nM] | apparent KD of MS2 coat protein [3] [nM] | apparent KD of MS2 coat protein [4] [nM]
UUUCAACGGUAGGAUAUCGAGACUACGACUAGCCGAGAAGGGCCGACAUGAGGAUCACCCAUGUGCCUCACCCG [Eternabot (L1) Solution 56] (Eterna round: R97, puzzle: Exclusion 6) | 22.9 | 23.9 | – | – | – | –
UUGUGAGGUGUAGGAUAUUGUUGUUGUUUUUAGCGAGAAGGACAUGAGGAUCACCCAUGUGUCGUGUUUUUUUUUUUUUUUUUU [simply blue] (Eterna round: R96, puzzle: Exclusion NG 1) | 78.9 | 59.1 | 93.5 | – | – | –
UUUUUCGAACAAGCUUCGAACAUGAGGAUCACCCAUGUAGGUAGAUUUGAGUAGGUUUGGAAGUAAGCUCGUCUUAU [JR_SV3TOV1_Sub081] (puzzle: Sensor v3, turn-off variant 1) | – | – | – | 416 | 561 | 592
GUGGGUUAUGUCAGGAUAUGGCCGUUAGGGCGACGCCAGAAGGGACAUGAGGAUCACCCAUGUCUCCGGGCAUC [BmEX4 C.10] (Eterna round: R97, puzzle: Brourd's mod of Exclusion 4) | 15.1 | 14.8 | – | – | – | –
CAUUAUUAUCGAGGAUAUCCUAUUGAAAUUCUGGGAGAAGGCGGACUCAACAUGAGGAUCACCCAUGUGGGACGGAUGCUAGGA [salish99_exng1_r04_602] (Eterna round: R96, puzzle: Exclusion NG 1) | – | – | 13.3 | – | – | –
GUCAUGAUAGGAUAUUACGGACGGAACAUGAGGAUCACCCAUGUGUCCCAAUCCAACUGAUAAGAAGGAUCAUGGC [Eternabot (Original) Solution 34] (Eterna round: R97, puzzle: Exclusion 5) | 18.8 | 14.5 | – | – | – | –
CACCGUUACCUAGGAUAUAGUACAUGAGGAUCACCCAUGUAAUAAAUGAGAAUUUCGGAUGUAUGCUAGAAGGAGGAAAUCGGC [Ostricism 49 - Jieux - Exclusion NG 2] (Eterna round: R96, puzzle: Exclusion NG 2) | – | – | 29.7 | – | – | –
UUAAAUCAUGUAGGAUAUGCGUGGCGAAGCUAUGCAGAAGGACAUGAGGAUCACCCAUGUUCUUGCGUCUGCGUACAGAUGCGG [Exclusion NG 1] (Eterna round: R96, puzzle: Exclusion NG 1) | 175 | 25.9 | 20 | – | – | –
UUUUAGCAAGCGAGUAUUAACAUGAGGAUCACCCAUGUGCAUCCAGUAUUACUUUUAGAUCUUGCUCGUCUUAUAUA [JR_STOV1_v2_Sub083] (Eterna round: R97, puzzle: Sensor, turn-off variant 1) | 339 | 381 | – | – | – | –
AAAUAAAGGUAGGAUAUCGAUUUUAAUUAAUAUCGAGAAGGGUCAACAUGAGGAUCACCCAUGUCAGCAUGUAA [LRO-Excl6-01-Rocketman] (Eterna round: R97, puzzle: Exclusion 6) | 59.9 | 64.2 | – | – | – | –
CUUUUGUGAGGAUAUCAGUAGUAUAAAAUUAAAAUUACUACUGAGAAGGCACAUGAGGAUCACCCAUGUUCCUC [Mat - Exclusion 4 - Mod of Salish - D75] (puzzle: Exclusion 4) | – | – | – | – | 36 | –
GCCGUAAAUGUGAGGAUAUACCUAUGGAUACAUAGGUAGAAGGCACAUGAGGAUCACCCAUGUUCUUAAUCGGC [Eli BMX r4m2] (Eterna round: R97, puzzle: Brourd's mod of Exclusion 4) | 567 | 185 | – | – | – | –
UCUCGCGGGCAAGGAUAUCCUACGUUGUUCUGGCCCGUGCAUGUUACAUGAGGAUCACCCAUGUGGGAGAAGGUGCACCAGGGC [Design 38] (Eterna round: R96, puzzle: Exclusion NG 2) | 56.9 | 52.5 | 30.3 | – | – | –
CCAGUGUAAGGAUAUCCGUUGCCGGAUAGAUGAUUAACAGCGGAGAAGGUACAUGAGGAUCACCCAUGUGUCCA [Eternabot (L1) Solution 8] (Eterna round: R97, puzzle: Exclusion 4) | 30.9 | 20.9 | – | – | – | –
GCAUGGAAAGUGAGGAUAUACCACUGGAUACAGUGGUAGAAGGCACAUGAGGAUCACCCAUGUCUCUACCAUGC [Fiskers BMX 4 - 41] (puzzle: Brourd's mod of Exclusion 4) | – | – | – | – | 13.4 | –
UAUUAGCAAGCGAGAUCCCACAUGAGGAUCACCCAUGUGCUCGCAUCCAGAAUUACUGGGUGCAAAGCUCGUCUUAU [Winner reversed engineered 8] (Eterna round: R97, puzzle: Sensor, turn-off variant 1) | 23.1 | 23.3 | – | – | – | –
AGGUCACAUGAGGAUCACCCAUGUGAGGAUAUAGACUCAAGAGCUUCGGCUCUCAAGUUUAGAAGGCGCUAUGA [EX1 #51] (Eterna round: R97, puzzle: Exclusion 1) | 25.8 | 26.3 | – | – | – | –

Sequence | apparent KD of MS2 coat protein (input ligand: FMN 200 uM) [nM] | apparent KD of MS2 coat protein (input ligand: none) [nM] | apparent KD of MS2 coat protein [1] [nM] | apparent KD of MS2 coat protein [2] [nM] | apparent KD of MS2 coat protein [3] [nM] | apparent KD of MS2 coat protein [4] [nM]
CAGUACUGAGGAUAUACAUGAGGAUCACCCAUGUGUUCGAGCUAGGAAACUAGCAAAAGUAGAAGGCAGUACUG [salish99_ex3_r3_080] (puzzle: Exclusion 3) | – | – | – | 85.2 | 15.4 | 14.9
CUUAUGUAAGGAUAUGCCUGGCCGUGAGGCCAAAUUGAAUAGCAGAAGGUACAUGAGGAUCACCCAUGUACGGG [jl-ex4-4.63 ViennaUCT mod] (Eterna round: R97, puzzle: Exclusion 4) | 325 | 364 | – | – | – | –
GUCAGCUCGUGAGGAUAUACAUGAUAGAUCGAUUAAUUAAUUAAUUUAACAUGAGGAUCACCCAUGUAGAAGGUACGAGCUGAU [ENG2/1-C2] (Eterna round: R96, puzzle: Exclusion NG 2) | – | – | 40.1 | – | – | –
UAUUAUAAUGUAGGAUAUCUGCACGUUUAGUGCAGAGAAGGACAUGAGGAUCACCCAUGUAUAGUAGCUUCGGCUACAUUAUUU [ENG1-B2] (Eterna round: R96, puzzle: Exclusion NG 1) | 103 | 68.9 | 52.2 | – | – | –
AGUACUAACACGAAAGUGUUAGUACAAUAAGCUAGUGGAACAUGAGGAUCACCCAUGUCCUCAUUAGCUCGUCUUAU [Mat - Sensor v3 - Turn-off var 2 - D33] (puzzle: Sensor v3, turn-off variant 2) | – | – | – | 16.3 | 36.6 | 13.4
CAGCUGAAUGUGAGGAUAUGUCGAGCCUCGGCUCGAUAGAAGGCACAUGAGGAUCACCCAUGUCUCAACAGCUG [BmEx4/2-C2] (Eterna round: R97, puzzle: Brourd's mod of Exclusion 4) | 258 | 34 | – | – | – | –
UGACUUCAUAUCACAUGAGGAUCACCCAUGUUAUUCAUCUCGUAGGAUAUCGAGGUUUAUUAUUUCGAGAAGGACGUAUUGUUU [JR_ExcNG3_Sub075] (Eterna round: R96, puzzle: Exclusion NG 3) | 68.6 | 45.5 | 44.3 | – | – | –
AACCCUUGUGUUAGGAUAUGUCACUACCAUAUGCGACAGAAGGAACAUGAGGAUCACCCAUGUGAGUUAGCCAA [Quesveququ] (puzzle: Brourd's mod of Exclusion 4) | – | – | – | – | 36 | –
GUACUAAAGCUUUGCUUUAGUCGUACAUGAGGAUCACCCAUGUAGGAUAUGGUAAGCAUAGCUUACUAGAAGGAUAGAGUGAUC [Mat - Exclusion NG 3 - Mod of JL - D66] (Eterna round: R96, puzzle: Exclusion NG 3) | 285 | 145 | 146 | – | – | –
AAUACAAUAAUUAAAGAGAUAGUACAUUAUACAAGUGAAACAUGAGGAUCACCCAUGUCCUCAUUUGCUCGUCUAAU [Hunting Buffalo with a BB Gun] (puzzle: Sensor v3, turn-off variant 2) | – | – | – | 334 | 142 | 435
AGCCAUACAGGAUAUGCCCGGGAUAACAUGAGGAUCACCCAUGUGACCGAUUCAUGUCCUGCAGAAGGGUAUGGGA [Mod of ViennaUCT 3 - Jieux - Exclusion 5] (Eterna round: R97, puzzle: Exclusion 5) | 31.7 | 16.8 | – | – | – | –
AAGAAACAUGAGGAUCACCCAUGUGAGGAUAUGAUCAAGAAAAGAAAAGAAAGAAGAUUCAGAAGGCACAAAGG [salish99-ex1_r3_056] (puzzle: Exclusion 1) | – | – | – | 124 | 160 | 362
UUUUUACGAGGAUAUCGUUUUUUUCACAUGAGGAUCACCCAUGUUGUUUAUGUUUCGUUGCGAGAAGGCGUUUGUU [JR_E5_Sub064] (puzzle: Exclusion 5) | – | – | – | – | 24.3 | –
UUUUUAUAUGAAGGAUAUACUUAACAUGAGGAUCACCCAUGUGGUGUUGUGAGUGAGUGAGUUUAGUAGAAGGUCAAUGAUUUU [JMF's solution 10] (Eterna round: R96, puzzle: Exclusion NG 2) | 730 | 345 | 326 | – | – | –
CAGGAUAGAGGAUAUACAUAGAUACAGAUUCAUGUGAUCCUACAUGAGGAUCACCCAUGUAGAAGGCUAUCCUG [Fiskers Ex 2 - 21] (puzzle: Exclusion 2) | – | – | – | – | 240 | –
GAAAAGGUAGGAUAUACGAAAAAAAAGGGUAGAAAAAAAACACAUGAGGAUCACCCAUGUAGAAGGACCAAAAU [salish99_ex2_r3_051] (puzzle: Exclusion 2) | – | – | – | 76.9 | 29.2 | 26.7
AGCGAGGCAGGAUAUACAUGAGGAUCACCCAUGUACUUGUAUGGCGUGGAACAUCGUGGUAGAAGGGCCGCGCC [EX3 #79] (Eterna round: R97, puzzle: Exclusion 3) | 33.5 | 23.7 | – | – | – | –
